Article PMC7226451, “Half Way to Hypusine—Structural Basis for Substrate Recognition by Human Deoxyhypusine Synthase” (Biomolecules, 2020)

B1: deoxyhypusine synthase (DHS), full-length, wild type (enzyme, human, UniProt P49366 1-369, looked up)
chain: MEGSLEREAPAGALAAVLKHSSTLPPESTQVRGYDFNRGVNYRALLEAFGTTGFQATNFGRAVQQVNAMIEKKLEPLSQDEDQHADLTQSRRPLTSCTIFLGYTSNLISSGIRETIRYLVQHNMVDVLVTTAGGVEEDLIKCLAPTYLGEFSLRGKELRENGINRIGNLLVPNENYCKFEDWLMPILDQMVMEQNTEGVKWTPSKMIARLGKEINNPESVYYWAQKNHIPVFSPALTDGSLGDMIFFHSYKNPGLVLDIVEDLRLINTQAIFAKCTGMIILGGGVVKHHIANANLMRNGADYAVYINTAQEFDGSDSGARPDEAVSWGKIRVDAQPVKVYADASLVFPLLVAETFAQKMDAFMHEKNED
modifications: Cys177 covalently modified to a β-mercaptoethanol (BME) adduct (seen in all crystal structures)
notes: human deoxyhypusine synthase, Uniprot P49366, residues 1-369; gene optimised for E. coli and synthesised; Cloned in pET24d (NcoI/BamHI) with an N-terminal 6xHis-tag and a TEV site; also called DHS wt; full length DHS; source: E. coli BL21(DE3), purified (HisTrap, TEV cleavage, reverse HisTrap, SEC); not shown: His6, N-terminal, cleaved
B2: truncated DHS Δ1-52 (domain or fragment, human, UniProt P49366 53-369, looked up)
chain: GFQATNFGRAVQQVNAMIEKKLEPLSQDEDQHADLTQSRRPLTSCTIFLGYTSNLISSGIRETIRYLVQHNMVDVLVTTAGGVEEDLIKCLAPTYLGEFSLRGKELRENGINRIGNLLVPNENYCKFEDWLMPILDQMVMEQNTEGVKWTPSKMIARLGKEINNPESVYYWAQKNHIPVFSPALTDGSLGDMIFFHSYKNPGLVLDIVEDLRLINTQAIFAKCTGMIILGGGVVKHHIANANLMRNGADYAVYINTAQEFDGSDSGARPDEAVSWGKIRVDAQPVKVYADASLVFPLLVAETFAQKMDAFMHEKNED
notes: human deoxyhypusine synthase, Uniprot P49366, residues 53-369 (lacks the N-terminal ball-and-chain motif, residues 1-52); Cloned in pET24d with an N-terminal 6xHis-tag and a TEV site; also called truncation mutant; source: E. coli BL21(DE3), purified (HisTrap, TEV cleavage, reverse HisTrap, SEC); not shown: His6, N-terminal, cleaved

Molecular target: the molecule itself
Assay: SEC-MALS; pure protein on XBridge BEH200 7.8 x 300 in 50 mM Tris 7.8, 200 mM NaCl, 5 mM β-ME, 1 mL/min; MALS with refractive index

Protein	stoichiometry N
B1	4
B2	2
